Laboratory results as given in PMC10613268, “Shade-induced RTFL/DVL peptides negatively regulate the shade response by directly interacting with BSKs in Arabidopsis” (Nature Communications, 2023).

B1: Sumo-His-RTFL18 (peptide, UniProt Q6X5V0 1-51, looked up)
chain: MEMKRVMMSSAERSKEKKRSISRRLGKYMKEQKGRIYIIRRCMVMLLCSHD
notes: RTFL18 (DVL1), Arabidopsis; full-length coding region cloned into a pET-SUMO vector; source: E. coli BL21 (DB3); not shown: SUMO, N-terminal, kept; His, N-terminal, kept
B2: His-RTFL18 WT (peptide, UniProt Q6X5V0 1-51, looked up)
chain: B1 chain
notes: RTFL18 (DVL1), Arabidopsis; full-length coding region cloned into a pET-SUMO vector; also called 6His-RTFL18 WT (wild type); source: E. coli BL21 (DB3), purified; not shown: His6, N-terminal, kept

How the values were obtained:
Details in all cases: both partners purified
GST-BSK6 = biological target: T1, GST-BSK6 (Arabidopsis, UniProt Q9M324 1-490); experiment: pull-down; in vitro (Fig. 4e): Sumo-His-RTFL18 on Ni-NTA beads, then GST or GST-BSK3/BSK6, 4 °C 2 h, 1 × PBS with 1 mM DTT; blot anti-GST, anti-His
T1 construct: BSK6, Arabidopsis; full-length coding region cloned into pGEX4-T-1; source: E. coli BL21 (DB3); not shown: GST, N-terminal, kept

GST-BSK3 WT [1] = biological target: T2, GST-BSK3 WT (Arabidopsis, UniProt Q8W4L3 1-489); experiment: as above
T2 construct: BSK3, Arabidopsis; full-length coding region cloned into pGEX4-T-1; source: E. coli BL21 (DB3), purified; not shown: GST, N-terminal, kept

GST-BSK3 WT [2] = biological target: T2, GST-BSK3 WT; experiment: pull-down; in vitro (Fig. 4l): purified GST-BSK3 WT on glutathione beads, then His-RTFL18 (WT, M1, M2), 4 °C 2 h, 1 × PBS with 1 mM DTT; blot anti-His, anti-GST

T2 sequence (Q8W4L3 whole entry): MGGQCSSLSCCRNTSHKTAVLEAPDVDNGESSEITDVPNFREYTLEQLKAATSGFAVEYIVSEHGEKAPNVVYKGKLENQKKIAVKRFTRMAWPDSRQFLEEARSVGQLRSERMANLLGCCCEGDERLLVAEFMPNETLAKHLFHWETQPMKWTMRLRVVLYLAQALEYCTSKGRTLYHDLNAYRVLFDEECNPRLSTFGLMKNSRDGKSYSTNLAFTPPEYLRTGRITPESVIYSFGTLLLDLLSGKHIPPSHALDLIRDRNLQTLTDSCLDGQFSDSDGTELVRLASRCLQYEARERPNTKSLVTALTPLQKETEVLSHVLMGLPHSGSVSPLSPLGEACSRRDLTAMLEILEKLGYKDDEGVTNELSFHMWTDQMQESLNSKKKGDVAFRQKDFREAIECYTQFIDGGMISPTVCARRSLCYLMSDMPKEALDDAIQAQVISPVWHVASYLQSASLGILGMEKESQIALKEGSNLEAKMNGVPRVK
T1 sequence (Q9M324 whole entry): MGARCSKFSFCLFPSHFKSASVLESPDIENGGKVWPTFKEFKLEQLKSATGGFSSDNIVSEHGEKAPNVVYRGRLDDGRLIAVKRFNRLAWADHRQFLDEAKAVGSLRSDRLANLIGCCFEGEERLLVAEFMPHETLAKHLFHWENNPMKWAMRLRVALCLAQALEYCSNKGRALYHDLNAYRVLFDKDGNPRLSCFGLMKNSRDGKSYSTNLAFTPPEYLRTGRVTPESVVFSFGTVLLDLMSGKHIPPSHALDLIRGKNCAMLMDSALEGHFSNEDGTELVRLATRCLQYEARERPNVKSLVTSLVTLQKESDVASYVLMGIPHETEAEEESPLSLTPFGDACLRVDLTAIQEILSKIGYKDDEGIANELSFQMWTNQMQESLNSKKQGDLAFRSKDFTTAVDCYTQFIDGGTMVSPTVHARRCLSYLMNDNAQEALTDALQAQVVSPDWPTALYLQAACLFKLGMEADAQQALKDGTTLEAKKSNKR

Binder	binding result (GST-BSK6)	binding result (GST-BSK3 WT [1])	binding result (GST-BSK3 WT [2])
B1	binds	binds	–
B2	–	–	binds
